Measurements as given in the supplement of paper PMC10567573.

B1: NCK2 (parent)
chain: YTGPSSSGRFAGREWYYGNVTRHQ
B2: TPD52L1 (parent)
chain: ISKKFGDMSYSIRHSISMPAMRNS
B3: PTPN9 (parent)
chain: LKGAFPARLKKVLIVGAPIWFRVP

Variants of: B1
Experiment: protein stability index of a GFP-peptide fusion (GPS, HEK-293T) (PSI 1-6); higher = more stable
Conditions: c terminus: a fixed tail appended
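Further: lentivirally expressed fusions sorted by FACS into six bins by GFP to DsRed ratio, PSI derived from sequencing read proportions per bin multiplied by bin number.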

Protein stability index, by site and new letter:
G18: V 2.68; L 3; F 1.6; C 2.35; K 2.64; Q 2.23; I 1.74; T 1.04; R 2.44; S 2.99; Y 2.03; H 2.11; M 1.55; W 2.18; N 2.49; D 2.39; A 1.46; E 1.44; P 1.89
Y16: I 2.19; R 1.98; W 2.29; G 1.81; M 1.61; D 2.27; L 1.59; T 2.45; H 2.03; N 2.13; S 2.33; C 2.03; E 2.26; A 2.24; Q 2.37; V 1.5; K 2.06; F 2.26
T21: P 2.06; E 2.05; S 2.13; L 2.34; N 2.4; R 1.68; I 1.87; V 2.64; D 1.76; H 1.9; F 2.53; Y 1.91; M 2.29; Q 1.78; G 1.45; C 2.37; K 1.74; A 1.84
Q24: Y 1.72; K 2.42; I 2.01; D 2.51; L 2.07; A 1.96; S 2.25; H 1.85; M 2.44; C 2.61; P 2.07; N 1.62; V 2.17; W 2.83; F 1.59; T 1.18; R 1.55; E 1.41; G 1.56
W15: V 2.36; Y 2.23
Y17: S 2.44; T 1.36; H 2.06; G 2.83; P 1.76; V 1.89; D 2.64; A 2.11; E 2.56; I 3.41; Q 1.97; C 1.77; L 1.58; N 1.59; R 2.19; M 1.87; K 1.91
R22: Y 2.17; E 1.85; V 2.18; N 2.35; P 1.14; G 2.62; H 1.33; Q 2.17; D 1.65; K 1.46; A 2; C 1.7; F 2.65; M 1.79; L 1.56; W 1.61
V20: P 1.81; N 1.98; H 2.34; F 1.59; Q 1.83; I 2.71; G 2.57; M 1.85; K 2.2; A 1.73; L 1.88; R 2.42; E 1.67; Y 2.44; D 2.92; S 1.66; T 1.75; C 2.13
N19: Q 3.23; W 3.18; A 2.09; L 2.05; M 3.08; P 2.58; C 1.55; F 2.01; G 1.63; H 2.12; I 1.53; D 1.76; K 1.38; Y 1.91; R 2.53; V 1.61; T 2.44; E 1.53; S 1.44
H23: Y 1.42; M 1.56; D 2.52; W 2.71; Q 1.31; C 1.07; I 2; T 1.46; R 1.53; S 1.79; P 1.23; V 1.56; A 2.86; E 1.47; G 1.88; K 2.33; F 1.79; L 2.81; N 2.09

Variants of: B2
Experiment: as above
Conditions: c terminus: a fixed tail appended

Protein stability index of substitutions, site by site:
K4: A 2.35
I1: H 2.42; T 2.9; C 2.26; P 2.89; N 2.87; K 2.17; D 3.33; V 3.17; A 2.58; S 3.16; Q 2.88; W 2.2; R 2.16; E 2.9; L 2.23; M 2.33; Y 1.54; G 2.65; F 1.88
K3: R 2.16; G 2.25; Q 2.25; D 2.34; V 4.4; I 3.53; Y 2.8; N 2.5; E 2.62; C 2.69; W 3.69; H 2.37; P 2.63; M 2.67; T 2.19; S 2.25; A 1.57; F 4.67; L 2.83
S2: T 2.21; V 2.34; I 2.97; N 2.37; F 1.74; Y 1.74; C 1.82; L 2.97; H 2.11; D 2.94; P 2.89; Q 2.37; E 2.83; M 1.75; G 2.88; R 2.54; A 2.41; W 1.83; K 2.74

Variants of: B3
Experiment: as above
Conditions: c terminus: a fixed tail appended

Protein stability index: each site, then its substitutions
I19: T 4.11; S 1.95; E 2.64; H 1
A4: Q 2.61; F 2.49; I 3.45; D 3.24; L 3.88
G16: P 5.02; R 3.43; W 1.74; F 2.2; I 1.57; N 2.29
F21: L 1.57; R 2.39; N 2.65
R22: G 2.34; L 4.03; D 1.87; H 2.47; P 3.02
A17: L 3.42; N 2.61; K 2.28; F 2.16; T 4.8
G3: S 3.35; D 3.16; K 3.39; A 2.89
P18: W 4.58; T 1.99; C 2.33; G 4.24
P24: K 3.06; D 4.03; L 3.02; E 1.31
K11: H 1.99; E 2.73; G 1.84; F 4.03; I 2.21
A7: V 2.57; F 3.16; Q 2.24
V23: D 2.11; P 2.07
L13: I 3.11; D 1.01; N 1.7; F 2.82; P 2.55
V12: N 3.54; A 3.43; R 2.3; T 2.61; G 1.27
K10: Y 2.2; Q 2.94; S 3.47
W20: H 4.59; K 2.56; S 2.41; E 3.74; F 2.45
K2: R 3.96; F 1.26; A 2.1; L 3.37; N 2.18
P6: H 2.28; M 1.86
V15: T 2.46; W 1.27; Q 1.55; S 1.37; F 2.48; Y 2.25; K 1.37; D 2.44; H 2.46
R8: G 2.76; S 3.94; L 2.2; F 2.79; N 2.74; W 2.35; M 2.46
I14: N 1.37; A 4.13; E 1.09; L 2.73; P 2.98; D 1.46; R 2.87
L9: K 2.57; F 1.64; V 4.71
L1: I 4.73; W 2.11; K 2.78; S 4.61; V 3.26; C 3.38
F5: T 2.25; I 3.12; L 3.82; P 2.49
